Test [1] addresses PP2A Aα subunit (human) (UniProt P30153). The test can be described thus: MST.
For test [2], the target named is T1, PP2A Cα subunit (human, UniProt P67775 2-309). Nature of the test: BLI.
The target of test [3] is T2, PP2A(B55α) holoenzyme (human, UniProt P30153 1-589; P63151 1-447; P67775 2-309). Nature of the test: BLI.
In test [4] the target is T1, PP2A Cα subunit. The test can be described thus: cryo-EM structure.
In test [5] the target is T2, PP2A(B55α) holoenzyme. The test can be described thus: BLI. This is another data set of the same source. For orientation: Biolayer interferometry detects binding as a change in optical thickness at a sensor tip.

T2 sequence (P30153 whole entry, chain 1 of 3): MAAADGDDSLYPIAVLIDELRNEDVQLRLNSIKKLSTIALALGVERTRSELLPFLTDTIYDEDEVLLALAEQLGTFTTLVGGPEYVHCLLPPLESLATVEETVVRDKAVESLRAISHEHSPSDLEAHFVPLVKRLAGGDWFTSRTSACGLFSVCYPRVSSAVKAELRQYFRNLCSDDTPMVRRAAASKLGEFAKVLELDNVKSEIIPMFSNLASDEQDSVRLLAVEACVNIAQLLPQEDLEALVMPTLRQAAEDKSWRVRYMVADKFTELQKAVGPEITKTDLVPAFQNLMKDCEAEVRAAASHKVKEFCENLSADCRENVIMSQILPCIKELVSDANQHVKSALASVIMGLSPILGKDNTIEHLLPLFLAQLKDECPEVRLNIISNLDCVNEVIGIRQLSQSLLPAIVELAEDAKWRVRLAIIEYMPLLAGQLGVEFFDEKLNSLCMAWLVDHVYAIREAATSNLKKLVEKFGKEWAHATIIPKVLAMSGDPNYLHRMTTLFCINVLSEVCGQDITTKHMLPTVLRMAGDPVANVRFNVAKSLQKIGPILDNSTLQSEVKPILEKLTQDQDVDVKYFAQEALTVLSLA
T2 sequence (P63151 whole entry, chain 2 of 3): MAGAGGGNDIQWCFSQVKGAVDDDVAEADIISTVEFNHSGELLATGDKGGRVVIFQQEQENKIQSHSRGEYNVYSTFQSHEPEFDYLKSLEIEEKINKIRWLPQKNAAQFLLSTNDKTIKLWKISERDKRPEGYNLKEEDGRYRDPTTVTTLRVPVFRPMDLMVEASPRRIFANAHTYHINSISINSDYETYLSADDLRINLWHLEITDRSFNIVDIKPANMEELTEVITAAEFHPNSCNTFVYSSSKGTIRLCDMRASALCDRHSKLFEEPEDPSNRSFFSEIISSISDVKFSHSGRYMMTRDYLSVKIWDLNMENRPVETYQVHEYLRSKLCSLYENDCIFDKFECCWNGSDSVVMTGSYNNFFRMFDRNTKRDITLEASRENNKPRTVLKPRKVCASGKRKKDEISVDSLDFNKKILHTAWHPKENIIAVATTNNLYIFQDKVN
T2 sequence (P67775 2-309, chain 3 of 3): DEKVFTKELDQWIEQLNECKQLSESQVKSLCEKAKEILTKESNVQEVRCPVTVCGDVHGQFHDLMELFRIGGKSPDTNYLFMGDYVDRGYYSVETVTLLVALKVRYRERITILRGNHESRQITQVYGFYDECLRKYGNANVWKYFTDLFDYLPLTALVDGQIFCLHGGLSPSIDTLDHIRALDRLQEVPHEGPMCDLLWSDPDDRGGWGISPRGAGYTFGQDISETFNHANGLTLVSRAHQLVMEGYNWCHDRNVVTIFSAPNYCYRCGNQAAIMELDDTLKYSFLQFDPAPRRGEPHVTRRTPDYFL
Sequence of PP2A Aα subunit (human) (P30153 whole entry): as the sequence (P30153 whole entry, chain 1 of 3) above
T1 sequence (P67775 2-309): as the sequence (P67775 2-309, chain 3 of 3) above

One may read the Kd as the concentration at which binding is half-saturated. The molecule “tag-free ENSA^S67D (from UniProt O43768 1-121) (natural protein)” registered a Kd in test [1] of 800 µM.

“tag-free ENSA^WT (from UniProt O43768 1-121) (natural protein)” gave a Kd in test [1] of 600 µM.

B1: GST-ENSA^S67D-His6 (natural protein, human, UniProt O43768 1-121, looked up)
chain: MSQKQEEENPAEETGEEKQDTQEKEGILPERAEEAKLKAKYPSLGQKPGGSDFLMKRLQKGQKYFDDGDYNMAKAKMKNKQLPSAGPDKNLVTGDHIPTPQDLPQRKSSLVTSKLAGGQVE
B1: the binding result in test [2] is “binds”. The molecule also returned a Kd in test [3] of 0.66 µM.

B2: His6-TEV site-ENSA^S67D (natural protein, human, UniProt O43768 1-121, looked up)
chain: MSQKQEEENPAEETGEEKQDTQEKEGILPERAEEAKLKAKYPSLGQKPGGSDFLMKRLQKGQKYFDDGDYNMAKAKMKNKQLPSAGPDKNLVTGDHIPTPQDLPQRKSSLVTSKLAGGQVE
For B2, the binding result in test [4] was “binds”.

B3: GST-ENSA^WT-His6 (natural protein, human, UniProt O43768 1-121, looked up)
chain: MSQKQEEENPAEETGEEKQDTQEKEGILPERAEEAKLKAKYPSLGQKPGGSDFLMKRLQKGQKYFDSGDYNMAKAKMKNKQLPSAGPDKNLVTGDHIPTPQDLPQRKSSLVTSKLAGGQVE
In test [3], B3 registered a Kd of 1.45 µM. In other words, the single-digit micromolar range.

B4: GST-ENSA^S67D E30A-His6 (natural protein, human, UniProt O43768 1-121, looked up)
chain: MSQKQEEENPAEETGEEKQDTQEKEGILPARAEEAKLKAKYPSLGQKPGGSDFLMKRLQKGQKYFDDGDYNMAKAKMKNKQLPSAGPDKNLVTGDHIPTPQDLPQRKSSLVTSKLAGGQVE
In the case of B4, the binding result in test [5] is recorded as “binds”.

B5: GST-ENSA^S67D K40A-His6 (natural protein, human, UniProt O43768 1-121, looked up)
chain: MSQKQEEENPAEETGEEKQDTQEKEGILPERAEEAKLKAAYPSLGQKPGGSDFLMKRLQKGQKYFDDGDYNMAKAKMKNKQLPSAGPDKNLVTGDHIPTPQDLPQRKSSLVTSKLAGGQVE
Consider B5, for which the binding result in test [5] was “binds”.

B6: GST-ENSA^S67D R57A-His6 (natural protein, human, UniProt O43768 1-121, looked up)
chain: MSQKQEEENPAEETGEEKQDTQEKEGILPERAEEAKLKAKYPSLGQKPGGSDFLMKALQKGQKYFDDGDYNMAKAKMKNKQLPSAGPDKNLVTGDHIPTPQDLPQRKSSLVTSKLAGGQVE
For B6, the binding result in test [5] is “binds”.

For the origin of these results see paper doi:10.64898/2025.12.13.693833 (bioRxiv, 2025).
